Test results taken from article PMC11603662.

Legend:
CaV2.1-F1406C (human) = test: co-IP; HEK293T cells coexpressing the two proteins, 10 uM MG132 for 24 h; lysates immunoprecipitated with anti-Myc on protein A/G sepharose, 16 h at 4 C; immunoblot
[1] = target: Myc-tagged human long carboxy-terminal CaV2.1 (CaV2.1-6myc) (human) (UniProt O00555); test: as above

CaV2.1-F1406C (human), sequence (O00555 whole entry, stated change not applied): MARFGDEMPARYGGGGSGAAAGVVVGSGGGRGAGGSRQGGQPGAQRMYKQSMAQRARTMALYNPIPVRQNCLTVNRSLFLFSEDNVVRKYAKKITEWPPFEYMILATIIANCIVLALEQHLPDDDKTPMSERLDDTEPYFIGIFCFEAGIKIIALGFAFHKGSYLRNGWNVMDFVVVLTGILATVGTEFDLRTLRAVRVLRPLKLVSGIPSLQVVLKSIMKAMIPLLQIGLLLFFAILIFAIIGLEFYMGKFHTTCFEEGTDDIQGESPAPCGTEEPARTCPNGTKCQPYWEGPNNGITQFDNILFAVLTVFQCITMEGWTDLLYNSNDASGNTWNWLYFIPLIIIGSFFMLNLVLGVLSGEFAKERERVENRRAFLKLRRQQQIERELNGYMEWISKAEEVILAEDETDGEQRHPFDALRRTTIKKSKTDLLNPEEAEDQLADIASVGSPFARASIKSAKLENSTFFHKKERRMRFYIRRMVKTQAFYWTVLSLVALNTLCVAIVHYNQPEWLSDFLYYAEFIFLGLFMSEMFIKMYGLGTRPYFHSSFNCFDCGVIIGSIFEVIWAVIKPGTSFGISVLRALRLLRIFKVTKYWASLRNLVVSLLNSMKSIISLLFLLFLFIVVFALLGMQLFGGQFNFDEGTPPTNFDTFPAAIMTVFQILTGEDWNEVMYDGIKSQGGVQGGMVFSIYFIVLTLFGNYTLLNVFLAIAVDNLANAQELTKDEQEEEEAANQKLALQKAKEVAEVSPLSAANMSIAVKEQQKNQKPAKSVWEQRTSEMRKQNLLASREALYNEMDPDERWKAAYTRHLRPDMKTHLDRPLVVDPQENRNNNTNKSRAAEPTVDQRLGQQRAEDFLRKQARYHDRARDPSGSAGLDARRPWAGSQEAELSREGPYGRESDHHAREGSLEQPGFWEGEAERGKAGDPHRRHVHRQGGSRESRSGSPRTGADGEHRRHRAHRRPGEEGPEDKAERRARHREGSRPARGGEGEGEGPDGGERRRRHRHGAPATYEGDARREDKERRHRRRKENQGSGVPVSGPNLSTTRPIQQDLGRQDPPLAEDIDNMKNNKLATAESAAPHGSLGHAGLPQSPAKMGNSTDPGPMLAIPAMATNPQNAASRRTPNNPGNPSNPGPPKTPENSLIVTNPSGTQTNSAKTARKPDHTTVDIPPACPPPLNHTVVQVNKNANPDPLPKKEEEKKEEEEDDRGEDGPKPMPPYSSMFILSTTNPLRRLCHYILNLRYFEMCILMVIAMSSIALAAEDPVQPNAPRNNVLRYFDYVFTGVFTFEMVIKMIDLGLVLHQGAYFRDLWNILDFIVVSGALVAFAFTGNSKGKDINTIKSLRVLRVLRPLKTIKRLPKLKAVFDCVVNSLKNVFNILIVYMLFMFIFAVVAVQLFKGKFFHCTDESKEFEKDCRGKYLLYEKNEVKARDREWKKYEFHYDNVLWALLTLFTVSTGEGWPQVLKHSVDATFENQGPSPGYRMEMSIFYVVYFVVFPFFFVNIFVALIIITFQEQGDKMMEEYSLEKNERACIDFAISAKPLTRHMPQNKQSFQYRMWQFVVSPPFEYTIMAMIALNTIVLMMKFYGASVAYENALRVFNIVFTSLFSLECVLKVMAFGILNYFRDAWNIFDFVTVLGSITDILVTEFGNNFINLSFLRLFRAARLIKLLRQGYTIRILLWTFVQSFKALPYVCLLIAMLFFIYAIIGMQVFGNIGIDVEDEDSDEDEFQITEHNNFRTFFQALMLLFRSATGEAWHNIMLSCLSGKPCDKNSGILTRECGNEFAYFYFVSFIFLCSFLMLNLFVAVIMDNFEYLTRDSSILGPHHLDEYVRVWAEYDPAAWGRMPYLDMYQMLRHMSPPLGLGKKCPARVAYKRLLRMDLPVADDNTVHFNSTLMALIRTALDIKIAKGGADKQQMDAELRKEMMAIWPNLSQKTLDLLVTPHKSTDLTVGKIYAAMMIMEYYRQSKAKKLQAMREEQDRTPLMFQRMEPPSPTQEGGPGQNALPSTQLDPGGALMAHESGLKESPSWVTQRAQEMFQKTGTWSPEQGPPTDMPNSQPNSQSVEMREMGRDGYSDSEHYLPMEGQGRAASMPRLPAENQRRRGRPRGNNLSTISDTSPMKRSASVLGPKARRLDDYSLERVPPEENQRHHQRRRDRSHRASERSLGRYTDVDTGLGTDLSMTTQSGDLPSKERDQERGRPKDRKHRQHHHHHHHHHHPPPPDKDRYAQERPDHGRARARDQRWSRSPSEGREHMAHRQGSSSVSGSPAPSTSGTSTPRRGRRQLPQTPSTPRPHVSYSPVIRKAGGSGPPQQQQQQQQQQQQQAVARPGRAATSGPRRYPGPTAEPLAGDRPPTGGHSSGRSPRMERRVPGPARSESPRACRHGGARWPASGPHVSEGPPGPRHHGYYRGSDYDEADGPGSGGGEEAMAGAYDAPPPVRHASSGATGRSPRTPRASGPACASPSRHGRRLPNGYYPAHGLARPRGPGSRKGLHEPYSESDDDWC

normalized coimmunoprecipitated Pin1 protein level (relative to CaV2.1 WT) (CaV2.1-F1406C (human)): 1.32
normalized coimmunoprecipitated Pin1 protein level (relative to CaV2.1 WT) [1]: 1
Substance: HA-tagged rat Pin1 (HA-Pin1) (enzyme)
